What was measured:
[1] = target: 4-1BB (CD137) on human MART-1 reactive T cell clones (TIL 209) (human) (UniProt Q07011); test: cell-based or functional assay
[2] = target: human SLAMF6 (NTB-A) on human tumor infiltrating lymphocytes / T cells (human) (UniProt Q96DU3); test: cell-based or functional assay
human SLAMF6 (NTB-A) on human tumor infiltrating lymphocytes / T cells (human), sequence (Q96DU3 22-332): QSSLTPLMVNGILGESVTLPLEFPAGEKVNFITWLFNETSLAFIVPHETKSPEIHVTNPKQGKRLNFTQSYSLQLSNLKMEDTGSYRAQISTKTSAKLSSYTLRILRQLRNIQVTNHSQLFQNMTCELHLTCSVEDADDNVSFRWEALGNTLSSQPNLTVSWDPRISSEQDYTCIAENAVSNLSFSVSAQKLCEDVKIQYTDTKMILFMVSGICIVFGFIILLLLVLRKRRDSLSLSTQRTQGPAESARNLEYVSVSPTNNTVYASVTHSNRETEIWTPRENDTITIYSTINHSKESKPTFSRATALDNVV

seSLAMF6 (SEQ ID NO: 3; Leu 28-Lys 225 of Q96DU3 fused with a polyhistidine tag at the C-terminus), sequence (Q96DU3 other isoform, or with tags, fused parts or gaps limits assumed): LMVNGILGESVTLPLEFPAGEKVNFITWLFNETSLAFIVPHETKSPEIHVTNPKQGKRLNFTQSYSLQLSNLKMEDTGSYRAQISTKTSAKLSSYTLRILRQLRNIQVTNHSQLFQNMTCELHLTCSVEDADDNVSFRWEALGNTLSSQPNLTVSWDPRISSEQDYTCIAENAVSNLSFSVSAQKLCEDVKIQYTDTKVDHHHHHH
4-1BB (CD137) on human MART-1 reactive T cell clones (TIL 209) (human), sequence (Q07011 24-255 limits assumed): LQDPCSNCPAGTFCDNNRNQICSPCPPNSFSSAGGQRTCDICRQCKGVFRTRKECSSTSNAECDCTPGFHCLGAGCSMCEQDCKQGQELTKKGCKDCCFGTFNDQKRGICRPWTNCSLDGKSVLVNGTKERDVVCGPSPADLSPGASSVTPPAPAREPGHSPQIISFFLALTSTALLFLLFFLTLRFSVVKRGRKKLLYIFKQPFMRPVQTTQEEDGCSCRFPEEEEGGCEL

## 4-1BBL expressed on transfected 624mel melanoma cells (mel624/4-1BBL) (from UniProt P41273 1-254) (ligand)
[1]
  IFNγ secretion of TIL 209 co-cultured with mel624/4-1BBL in CM (mel624/moc: 4,120): 8600 pg/mL
  IFNγ secretion of TIL 209 co-cultured with mel624/4-1BBL with BSA (mel624/moc: 3,160): 10500 pg/mL

## seSLAMF6 (SEQ ID NO: 3; Leu 28-Lys 225 of Q96DU3 fused with a polyhistidine tag at the C-terminus) (from UniProt Q96DU3 28-225) (receptor)
[2]
  CD107a surface expression (lytic degranulation) of human TILs 209 after REP with seSLAMF6 50 µg/ml, co-culture with 526mel: 2 fold
  ratio of cell death and apoptosis (PI / Annexin-V, flow cytometry) of melanoma-activated TILs 209 after IL-2 withdrawal, seSLAMF6 10 µg/ml: 4%
  ratio of cell death on Day 7 (PI / annexin-V), TILs expanded by REP-IL-2, then seSLAMF6 50 µg/ml: 7 to 11%
  ratio of cell death on Day 7 (PI / annexin-V), TILs expanded by REP-seSLAMF6, then seSLAMF6 50 µg/ml: 7 to 11%

From patent US20160333072A1
